Assay results published in paper PMC5222340, “The Arginine Pairs and C-Termini of the Sso7c4 from Sulfolobus solfataricus Participate in Binding and Bending DNA”.

T1: C-terminally truncated Sso7c4 (Sulfolobus solfataricus P2, UniProt A0A0E3K9N8 1-48, del49-54)
T1 chain: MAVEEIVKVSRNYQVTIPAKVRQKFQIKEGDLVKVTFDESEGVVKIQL

B1: 5'-FAM-20-bp DNA (dsDNA)
DNA 1: CCAACACTGGCCAGTGTTGG
DNA 2: CCAACACTGGCCAGTGTTGG
B2: 24 bp FRET DNA (dsDNA)
DNA 1: CGTGCTCTGCGATCTCTTCGATAA
DNA 2: TTATCGAAGAGATCGCAGAGCACG
B3: 30 bp FRET DNA (dsDNA)
DNA 1: CGTGCTCTGCGATCTCTTCGATAACCATAG
DNA 2: CTATGGTTATCGAAGAGATCGCAGAGCACG
B4: 5'-FAM-10-bp DNA (dsDNA)
DNA 1: CCTACGTAGG
DNA 2: CCTACGTAGG
B5: 5'-FAM-8-bp DNA (dsDNA)
DNA 1: CGCTAGCG
DNA 2: CGCTAGCG
B6: 20-bp DNA unlabeled (dsDNA)
DNA 1: CCAACACTGGCCAGTGTTGG
DNA 2: CCAACACTGGCCAGTGTTGG

Assays:
Sso7c4 wild-type [1] = molecular target: T2, Sso7c4 wild-type (Sulfolobus solfataricus P2, UniProt A0A0E3K9N8 1-54); test: fluorescence polarization; 20 mM Tris-Cl pH 7.5, no added salt, 25 C; FP with 100 nM FAM-DNA, 1 h at room temperature; conditions: protein: recombinant; chain copies: 2; label: 5'-FAM; blunt, self-complementary
Target sequence in this assay (A0A0E3K9N8 entry or part of it): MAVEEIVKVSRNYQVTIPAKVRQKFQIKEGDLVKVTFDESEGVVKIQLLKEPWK

Sso7c4-R11A = Sso7c4-R11A (Sulfolobus solfataricus P2, UniProt A0A0E3K9N8 1-54, R11A); test: as above; conditions: protein: recombinant; chain copies: 2; label: 5'-FAM; blunt, self-complementary
Chain of Sso7c4-R11A (A0A0E3K9N8 entry or part of it R11A | R11A R11A): as the sequence (A0A0E3K9N8 entry or part of it) above, with R11A counted along it

[2] = molecular target: T1, C-terminally truncated Sso7c4; test: as above; conditions: protein: recombinant; chain copies: 2; label: 5'-FAM; blunt, self-complementary
Sso7c4-R22A = Sso7c4-R22A (Sulfolobus solfataricus P2, UniProt A0A0E3K9N8 1-54, R22A); test: as above; conditions: protein: recombinant; chain copies: 2; label: 5'-FAM; blunt, self-complementary
Chain of Sso7c4-R22A (A0A0E3K9N8 entry or part of it R22A | R22A R22A): as the sequence (A0A0E3K9N8 entry or part of it) above, with R22A counted along it

Sso7c4 wild-type [3] = molecular target: T2, Sso7c4 wild-type; test: bulk FRET; saturating protein; DNA bent; 20 mM Tris-Cl pH 7.5, no added salt, 25 C; FP with 100 nM FAM-DNA, 1 h at room temperature; conditions: protein: recombinant; chain copies: 2; label: Cy3 and Cy5 on the 5' ends; blunt
[4] = molecular target: T1, C-terminally truncated Sso7c4; test: bulk FRET; saturating protein; slight change; 20 mM Tris-Cl pH 7.5, no added salt, 25 C; FP with 100 nM FAM-DNA, 1 h at room temperature; conditions: protein: recombinant; chain copies: 2; label: Cy3 and Cy5 on the 5' ends; blunt
[5] = molecular target: T1, C-terminally truncated Sso7c4; test: bulk FRET; saturating protein; DNA straightened; 20 mM Tris-Cl pH 7.5, no added salt, 25 C; FP with 100 nM FAM-DNA, 1 h at room temperature; conditions: protein: recombinant; chain copies: 2; label: Cy3 and Cy5 on the 5' ends; blunt
Sso7c4 wild-type [6] = molecular target: T2, Sso7c4 wild-type; test: tryptophan fluorescence quenching; 20 mM Tris-Cl pH 7.5, no added salt, 25 C; FP with 100 nM FAM-DNA, 1 h at room temperature; conditions: protein: recombinant; chain copies: 2; blunt, self-complementary
Target sequence in this assay (A0A0E3K9N8 entry or part of it): as the sequence (A0A0E3K9N8 entry or part of it) above

| Binder | Kd (Sso7c4 wild-type [1]) | Kd [2] | binding result (Sso7c4 wild-type [3]) | also measured |
| --- | --- | --- | --- | --- |
| B1 | 2.73 ± 0.18 µM | 12 ± 0.53 µM |  | Kd (Sso7c4-R11A): 3.19 ± 0.12 µM; Kd (Sso7c4-R22A): 5.07 ± 0.15 µM |
| B2 |  |  | binds | binding result [4]: binds |
| B3 |  |  | binds | binding result [5]: binds |
| B4 | 3.12 ± 0.16 µM | 11 ± 0.41 µM |  |  |
| B5 | 14.2 ± 0.26 µM | 15.9 ± 0.53 µM |  |  |
| B6 |  |  |  | Kd (Sso7c4 wild-type [6]): 22.8 µM |
